In paper PMC11191652 (Biomaterials science, 2024):

Target: p300 (UniProt Q09472 1-2414)
Experiment: ELISA

Sequence of p300 (Q09472 whole entry): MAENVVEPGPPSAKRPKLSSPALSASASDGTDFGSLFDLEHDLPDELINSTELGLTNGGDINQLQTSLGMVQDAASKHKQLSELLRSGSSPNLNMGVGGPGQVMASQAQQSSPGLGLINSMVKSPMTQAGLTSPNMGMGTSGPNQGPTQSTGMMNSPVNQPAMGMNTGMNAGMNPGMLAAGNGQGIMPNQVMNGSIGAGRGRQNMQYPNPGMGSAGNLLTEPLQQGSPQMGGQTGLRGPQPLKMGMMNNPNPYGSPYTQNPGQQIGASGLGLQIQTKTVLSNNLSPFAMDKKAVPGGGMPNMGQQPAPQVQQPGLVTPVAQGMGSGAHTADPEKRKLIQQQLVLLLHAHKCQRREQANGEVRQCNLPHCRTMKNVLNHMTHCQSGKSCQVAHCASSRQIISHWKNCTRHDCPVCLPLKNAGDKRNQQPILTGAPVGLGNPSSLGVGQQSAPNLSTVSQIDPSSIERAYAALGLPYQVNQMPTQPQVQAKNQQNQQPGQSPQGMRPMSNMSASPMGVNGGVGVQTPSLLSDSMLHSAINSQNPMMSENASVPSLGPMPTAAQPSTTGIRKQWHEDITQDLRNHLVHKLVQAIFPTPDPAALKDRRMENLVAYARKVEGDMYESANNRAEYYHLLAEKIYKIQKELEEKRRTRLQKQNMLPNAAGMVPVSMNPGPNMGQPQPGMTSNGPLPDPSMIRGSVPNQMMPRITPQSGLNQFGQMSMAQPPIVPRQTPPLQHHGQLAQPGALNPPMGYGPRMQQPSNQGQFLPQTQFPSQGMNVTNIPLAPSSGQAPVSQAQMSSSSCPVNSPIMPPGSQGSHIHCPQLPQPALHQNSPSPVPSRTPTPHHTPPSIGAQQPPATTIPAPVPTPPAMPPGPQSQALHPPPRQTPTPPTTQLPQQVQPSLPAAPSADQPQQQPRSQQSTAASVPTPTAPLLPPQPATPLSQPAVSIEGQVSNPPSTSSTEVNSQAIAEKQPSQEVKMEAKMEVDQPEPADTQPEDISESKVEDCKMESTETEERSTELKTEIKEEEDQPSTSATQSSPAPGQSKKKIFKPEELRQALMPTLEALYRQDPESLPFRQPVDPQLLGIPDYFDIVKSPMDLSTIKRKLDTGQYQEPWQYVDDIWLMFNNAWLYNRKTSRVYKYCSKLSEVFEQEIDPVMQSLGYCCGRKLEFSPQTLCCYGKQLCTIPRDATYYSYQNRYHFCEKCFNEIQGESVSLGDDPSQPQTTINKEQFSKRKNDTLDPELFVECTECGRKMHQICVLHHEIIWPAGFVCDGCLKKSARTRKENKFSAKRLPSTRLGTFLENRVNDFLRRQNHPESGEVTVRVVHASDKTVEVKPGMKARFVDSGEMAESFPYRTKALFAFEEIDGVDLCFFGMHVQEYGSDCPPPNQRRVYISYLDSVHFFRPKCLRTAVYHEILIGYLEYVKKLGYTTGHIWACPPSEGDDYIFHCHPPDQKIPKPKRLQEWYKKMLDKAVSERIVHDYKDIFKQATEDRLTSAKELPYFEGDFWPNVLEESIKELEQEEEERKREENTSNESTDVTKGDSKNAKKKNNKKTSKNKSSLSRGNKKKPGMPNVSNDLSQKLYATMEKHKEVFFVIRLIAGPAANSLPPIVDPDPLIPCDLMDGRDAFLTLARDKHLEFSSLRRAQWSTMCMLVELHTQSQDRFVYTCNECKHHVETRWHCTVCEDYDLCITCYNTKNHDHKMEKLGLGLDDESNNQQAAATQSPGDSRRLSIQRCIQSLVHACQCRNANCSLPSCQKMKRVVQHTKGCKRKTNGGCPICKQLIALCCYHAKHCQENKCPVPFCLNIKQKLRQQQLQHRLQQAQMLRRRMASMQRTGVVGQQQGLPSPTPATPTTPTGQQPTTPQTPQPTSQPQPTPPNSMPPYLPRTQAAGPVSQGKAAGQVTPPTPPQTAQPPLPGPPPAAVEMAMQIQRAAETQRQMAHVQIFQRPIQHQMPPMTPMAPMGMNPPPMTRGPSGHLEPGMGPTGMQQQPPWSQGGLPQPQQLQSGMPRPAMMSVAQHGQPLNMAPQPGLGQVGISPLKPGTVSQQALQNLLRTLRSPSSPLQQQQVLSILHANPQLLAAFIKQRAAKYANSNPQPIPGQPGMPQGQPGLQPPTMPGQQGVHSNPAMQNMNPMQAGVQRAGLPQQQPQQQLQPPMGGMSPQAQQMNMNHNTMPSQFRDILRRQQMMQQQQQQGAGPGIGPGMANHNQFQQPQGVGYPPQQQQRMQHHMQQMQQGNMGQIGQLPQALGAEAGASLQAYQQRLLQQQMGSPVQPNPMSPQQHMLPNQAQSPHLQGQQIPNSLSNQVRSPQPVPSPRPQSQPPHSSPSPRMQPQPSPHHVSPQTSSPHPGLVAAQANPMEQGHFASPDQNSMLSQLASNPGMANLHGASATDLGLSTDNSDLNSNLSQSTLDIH

B1: HIF1α C-terminal transactivation domain, HIF1α_(786–826) (domain or fragment, UniProt Q16665 786-826, looked up)
chain: SMDESGLPQLTSYDCEVNAPIQGSRNLLQGEELLRALDQVN
Kd: 14.5 nM
